The values below come from patent US12514938B2, “Fibroblast activation protein targeting peptides” (PERSPECTIVE THERAPEUTICS, INC., priority 2023, dated 2026).

One data set has as its system hFAP-HT1080 tumors. As to the kind of experiment: Radiotherapeutic efficacy in human fibrosarcoma xenograft model. Type of data set: in vivo, athymic nude mice. As to conditions: 4.5-5.4 MBq over three fractionated doses, weight recorded over 70 days. As to the method: In vivo efficacy was determined in a sarcoma model where hFAP is expressed on the membrane of cancer cell surface. HT1080 cells engineered to express hFAP. 8 days prior to treatment, athymic nude mice were inoculated with approximately 2 million cells. The mice were then randomized by tumor size and divided into two groups for control and treatment. The treated group was treated with 4.5-5.4 MBq [^212Pb]-Pb-VMT-FAP-2-59 over three fractionated doses approximately 2 weeks apart. Two mice were treated a fourth time, at day 48 and day 53 with an additional 1.9-2.1MBq. Tumor volume was measured via caliper, and weight recorded over 70 days. […] Efficacy of VMT-FAP-2-59 in athymic nude mice bearing HT1080-FAP tumors. Tumor volume and weight was monitored over 70 days. The treatment group was given 4.5-5.4MBq ^212Pb-VMT-FAP-2-59 over 3 fractionated doses. Two mice with tumor recurrence were given an additional 1.9-2.1 MBq, as indicated by dashed arrows.
In general terms: Xenograft models place foreign cells or tissue in a host animal.

The target in data set [1] is T1, Human Fibroblast Activation Protein (FAP) (Homo sapiens, UniProt Q12884).
T1 sequence (Q12884 1-760): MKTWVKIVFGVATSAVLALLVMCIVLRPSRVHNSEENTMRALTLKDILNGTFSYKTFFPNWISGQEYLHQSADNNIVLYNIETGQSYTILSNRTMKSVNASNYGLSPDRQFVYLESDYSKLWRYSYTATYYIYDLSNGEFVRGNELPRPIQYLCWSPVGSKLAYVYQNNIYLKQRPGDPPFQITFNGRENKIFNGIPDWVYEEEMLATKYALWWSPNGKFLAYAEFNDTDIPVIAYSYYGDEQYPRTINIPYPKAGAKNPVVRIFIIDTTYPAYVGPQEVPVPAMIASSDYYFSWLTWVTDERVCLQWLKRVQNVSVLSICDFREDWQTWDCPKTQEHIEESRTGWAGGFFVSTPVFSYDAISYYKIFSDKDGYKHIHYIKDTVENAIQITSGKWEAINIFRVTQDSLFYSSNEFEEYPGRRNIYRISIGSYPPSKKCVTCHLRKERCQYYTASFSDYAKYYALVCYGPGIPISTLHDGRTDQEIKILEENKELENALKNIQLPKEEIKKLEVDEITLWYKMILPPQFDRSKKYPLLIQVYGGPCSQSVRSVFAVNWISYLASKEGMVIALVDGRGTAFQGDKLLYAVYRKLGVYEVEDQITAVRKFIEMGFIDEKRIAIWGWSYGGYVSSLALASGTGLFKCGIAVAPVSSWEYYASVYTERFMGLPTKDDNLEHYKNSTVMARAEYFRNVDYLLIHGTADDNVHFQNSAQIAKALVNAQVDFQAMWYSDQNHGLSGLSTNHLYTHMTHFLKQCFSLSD
As to the kind of experiment: Enzyme inhibition assay against human FAP (substrate Z-GP-AMC), Example 1. Type of data set: biochemical. As to conditions: human FAP 5 ng/well, 50 μM Z-GP-AMC; Ki from IC50 by Cheng-Prusoff. In a few lines: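 FAP (5 ng/well) preincubated 10 min at RT with peptide (10^−6 to 10^−12), then 50 μM Z-GP-AMC added for 1 h at RT, protected from light. Buffer 50 mM Tris-HCl, 1 M NaCl, 1 mg/mL BSA, pH 7.5; fluorescence at ex/em 360/460. IC50 from non-linear regression, converted to Ki via Cheng-Prusoff using known substrate Km.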

*1 amine or outer side, *2 acyl side, *3 side chain or, on linkers, in order; H or OH if unused. Where a SMILES comes first, the peptide text is derived from it. Bridges are numbered along the chain shown (N, C = ends). The star is where a group is joined. X1 = NC(=O)CN1CCN(CC(=O)O)CCN(CC(=O)*)CCN(CC(=O)O)CC1; oXylylene = c1ccc(C[*:2])c(C[*:1])c1; 12Ado = NCCCCCCCCCCCC(=O)O; PEG2 = NCCOCCOCCC(=O)O

`C[C@@H](O)[C@@H]1NC(=O)[C@@H](NC(=O)CCOCCOCCNC(=O)CN2CCN(CC(=O)O)CCN(CC(N)=O)CCN(CC(=O)O)CC2)CSCc2ccccc2CSC[C@@H](C(N)=O)NC(=O)[C@H](Cc2c[nH]c3ccccc23)NC(=O)[C@H](Cc2c[nH]c3ccccc23)NC(=O)[C@H](CCC(N)=O)NC(=O)[C@H](CCC(=O)O)NC(=O)[C@H](Cc2c[nH]c3ccccc23)NC(=O)[C@@H]2CCCN2C1=O` [[^212Pb]VMT-FAP-2-59, metal not drawn] ({X1-PEG2}-CTPWEQWWC-NH2; linker 1-9 via oXylylene): the Treatment-related toxicity entry with hFAP-HT1080 tumors is reported as “No treatment-related toxicity was observed”.
In general, Ki refers to a measure of affinity in units of concentration, obtained from inhibition or displacement. In the case of `C[C@@H](O)[C@@H]1NC(=O)[C@@H](NC(=O)CCCCCCCCCCCNC(=O)CN2CCN(CC(=O)O)CCN(CC(N)=O)CCN(CC(=O)O)CC2)CSCc2ccccc2CSC[C@@H](C(N)=O)NC(=O)[C@H](Cc2c[nH]c3ccccc23)NC(=O)[C@H](Cc2c[nH]c3ccccc23)NC(=O)[C@H](CCC(N)=O)NC(=O)[C@H](CCC(=O)O)NC(=O)[C@H](Cc2c[nH]c3ccccc23)NC(=O)[C@@H]2CCCN2C1=O` [VMT-FAP-2-74, PSC-12-Ado-[C(oXdB)TPWEQWWC]-NH2] ({X1-12Ado}-CTPWEQWWC-NH2; linker 1-9 via oXylylene), the Ki in data set [1] stood at 6.66 nM.
